For 56 variants, screen value results are on record in publication PMC12102759 (2025).

The chains are these.
B1: ICA1L peptide 451-466 (Islet cell autoantigen 1-like protein), 16-mer library wild type / NSP16 (ORF1ab Nsp16, residues 6799-7088) (parent complex)
chain 1: QDMSAWFNLFADLDPL
chain 2: SSQAWQPGVAMPNLYKMQRMLLEKCDLQNYGDSATLPKGIMMNVAKYTQLCQYLNTLTLAVPYNMRVIHFGAGSDKGVAPGTAVLRQWLPTGTLLVDSDLNDFVSDADSTLIGDCATVHTANKWDLIISDMYDPKTKNVTKENDSKEGFFTYICGFIQQKLALGGSVAIKITEHSWNADLYKLMGHFAWWTAFVTNVNASSSEAFLIGCNYLGKPREQIDGYVMHANYIFWRNTNPIQLSSYSLFDMSKFPLKLRGTAVMSLKEGQINDMILSLLSKGRLIIRENNRVVI
B2: NOTCH4 peptide 1606-1621 (Neurogenic locus notch homolog protein 4), 16-mer library wild type / NSP9 (ORF1ab Nsp9, residues 4141-4253) (parent complex)
chain 1: QGAWLGAPEPWEPLLD
chain 2: NNELSPVALRQMSCAAGTTQTACTDDNALAYYNTTKGGRFVLALLSDLQDLKWARFPKSDGTGTIYTELEPPCRFVTDTPKGPKVKYLYFIKGLNNLNRGMVLGSLAATVRLQ

In the first experiment the parent is B1. Kind of experiment: bait immobilised on MaxiSorp plates (10 µg), library pre-cleared on GST, 2 h binding at 4 °C, five washes; one round per day, days 1-4; value from days 2 and 3.
Regarding chain 1 QDMSAWFNMFADLDPL, the screen value is 0.111 average fractional NGS count over selection days 2 and 3 (reads of this peptide / all reads for the bait, averaged over …. Regarding chain 1 QDMSAWFNLFADMDPL, the screen value is 0.00451 average fractional NGS count over selection days 2 and 3 (reads of this peptide / all reads for the bait, averaged over ….

Consider chain 1 QDMSAWFNLFADWDPL, for which the screen value is 0.0001 average fractional NGS count over selection days 2 and 3 (reads of this peptide / all reads for the bait, averaged over ….

Take chain 1 QDMSAWFNLFADFDPL: the screen value is 8.42e-05 average fractional NGS count over selection days 2 and 3 (reads of this peptide / all reads for the bait, averaged over …. Same read-out and setting: under chain 1 QDMSAWFNLFGDLDPL stands 9.42e-05 average fractional NGS count over selection days 2 and 3 (reads of this peptide / all reads for the bait, averaged over …. Same read-out and setting: for chain 1 QDMSTWFNLFADLDPL the value was 0.00049 average fractional NGS count over selection days 2 and 3 (reads of this peptide / all reads for the bait, averaged over …; for chain 1 QDMSAWFNLFAYLDPL, 0.000481 average fractional NGS count over selection days 2 and 3 (reads of this peptide / all reads for the bait, averaged over …. Still for that read-out and setting: for chain 1 QDMSAWFNLFAWLDPL the value was 0.00015 average fractional NGS count over selection days 2 and 3 (reads of this peptide / all reads for the bait, averaged over …; for chain 1 QDMSAWFNLFAHLDPL, 0.0543 average fractional NGS count over selection days 2 and 3 (reads of this peptide / all reads for the bait, averaged over …; for chain 1 QDMSAWFHLFADLDPL, 0.00331 average fractional NGS count over selection days 2 and 3 (reads of this peptide / all reads for the bait, averaged over …. With chain 1 QDMSAWFTLFADLDPL, the screen value was 0.000466 average fractional NGS count over selection days 2 and 3 (reads of this peptide / all reads for the bait, averaged over …. Same read-out and setting: under chain 1 QDMSAWFGLFADLDPL stands 0.000503 average fractional NGS count over selection days 2 and 3 (reads of this peptide / all reads for the bait, averaged over …; under chain 1 QDISAWFNLFADLDPL, 0.00221 average fractional NGS count over selection days 2 and 3 (reads of this peptide / all reads for the bait, averaged over …; under chain 1 QDMSAWFNLFADLEPL, 0.00108 average fractional NGS count over selection days 2 and 3 (reads of this peptide / all reads for the bait, averaged over ….

For the variant chain 1 QDMSAWFNLFADLPPL, the screen value was 0.000203 average fractional NGS count over selection days 2 and 3 (reads of this peptide / all reads for the bait, averaged over …. On the same count and under the same terms, for chain 1 QDMSAWFNLFADLDVL the value was 0.000993 average fractional NGS count over selection days 2 and 3 (reads of this peptide / all reads for the bait, averaged over …. Still for that read-out and setting: under chain 1 QDMSAWFNLFADLDGL stands 0.000662 average fractional NGS count over selection days 2 and 3 (reads of this peptide / all reads for the bait, averaged over …; under chain 1 QDMSAWFNLFADLDTL, 0.00148 average fractional NGS count over selection days 2 and 3 (reads of this peptide / all reads for the bait, averaged over …; under chain 1 QDMSAWFNLFADLDNL, 0.000142 average fractional NGS count over selection days 2 and 3 (reads of this peptide / all reads for the bait, averaged over ….

For the variant chain 1 QDMSAWFNLFADLDQL, the screen value is 0.000173 average fractional NGS count over selection days 2 and 3 (reads of this peptide / all reads for the bait, averaged over ….

Consider chain 1 QDMTAWFNLFADLDPL, for which the screen value was 0.00139 average fractional NGS count over selection days 2 and 3 (reads of this peptide / all reads for the bait, averaged over …. Still for that read-out and setting: under chain 1 QDMSAWFNLFADLDPY stands 0.00657 average fractional NGS count over selection days 2 and 3 (reads of this peptide / all reads for the bait, averaged over …; under chain 1 QDMSAWFNLFADLDPV, 0.000224 average fractional NGS count over selection days 2 and 3 (reads of this peptide / all reads for the bait, averaged over …; under chain 1 QDMSAWFNLFADLDPR, 0.000401 average fractional NGS count over selection days 2 and 3 (reads of this peptide / all reads for the bait, averaged over ….

As to chain 1 QDMSAWFNLFADLDPT, the screen value was 0.000115 average fractional NGS count over selection days 2 and 3 (reads of this peptide / all reads for the bait, averaged over …. Still for that read-out and setting: for chain 1 QDMSAWFNLFADLDPW the value was 0.000423 average fractional NGS count over selection days 2 and 3 (reads of this peptide / all reads for the bait, averaged over …; for chain 1 QDMSAWFNLFADLDPM, 0.0149 average fractional NGS count over selection days 2 and 3 (reads of this peptide / all reads for the bait, averaged over …. On the same count and under the same terms, for chain 1 QDMSAWWNLFADLDPL the value was 0.000183 average fractional NGS count over selection days 2 and 3 (reads of this peptide / all reads for the bait, averaged over …; for chain 1 QDMSAWLNLFADLDPL, 0.000815 average fractional NGS count over selection days 2 and 3 (reads of this peptide / all reads for the bait, averaged over …; for chain 1 QSMSAWFNLFADLDPL, 0.000218 average fractional NGS count over selection days 2 and 3 (reads of this peptide / all reads for the bait, averaged over ….

In the next experiment the parent is B2. The description is as above.
For chain 1 QGAWLGAPEPGEPLLD, the screen value is 0.0061 average fractional NGS count over selection days 2 and 3 (reads of this peptide / all reads for the bait, averaged over …. Turning to chain 1 QGAWLGAPEPQEPLLD, the screen value is 0.00182 average fractional NGS count over selection days 2 and 3 (reads of this peptide / all reads for the bait, averaged over ….

chain 1 QGAWLGAPEPVEPLLD: the screen value was 0.000951 average fractional NGS count over selection days 2 and 3 (reads of this peptide / all reads for the bait, averaged over …. The same measure, in the same setting: under chain 1 QGAWLGAPEPAEPLLD stands 0.00423 average fractional NGS count over selection days 2 and 3 (reads of this peptide / all reads for the bait, averaged over …; under chain 1 QGAWLGAPEPFEPLLD, 0.0024 average fractional NGS count over selection days 2 and 3 (reads of this peptide / all reads for the bait, averaged over …; under chain 1 QGAWLGAPEPPEPLLD, 0.0013 average fractional NGS count over selection days 2 and 3 (reads of this peptide / all reads for the bait, averaged over ….

As for chain 1 QGAWLGYPEPWEPLLD, the screen value was 0.000616 average fractional NGS count over selection days 2 and 3 (reads of this peptide / all reads for the bait, averaged over ….

For chain 1 QGAWLGPPEPWEPLLD, the screen value is 0.000551 average fractional NGS count over selection days 2 and 3 (reads of this peptide / all reads for the bait, averaged over …. Same read-out and setting: for chain 1 QGAWLGTPEPWEPLLD the value was 0.00295 average fractional NGS count over selection days 2 and 3 (reads of this peptide / all reads for the bait, averaged over …; for chain 1 QGAWLGFPEPWEPLLD, 0.000134 average fractional NGS count over selection days 2 and 3 (reads of this peptide / all reads for the bait, averaged over …. Still for that read-out and setting: for chain 1 QGAWLGMPEPWEPLLD the value was 0.000666 average fractional NGS count over selection days 2 and 3 (reads of this peptide / all reads for the bait, averaged over …. Still for that read-out and setting: for chain 1 QGAWLGWPEPWEPLLD the value was 0.000255 average fractional NGS count over selection days 2 and 3 (reads of this peptide / all reads for the bait, averaged over …. Consider chain 1 QGAWLGVPEPWEPLLD, for which the screen value was 0.00673 average fractional NGS count over selection days 2 and 3 (reads of this peptide / all reads for the bait, averaged over …. The same measure, in the same setting: for chain 1 QGAWLGNPEPWEPLLD the value was 0.00161 average fractional NGS count over selection days 2 and 3 (reads of this peptide / all reads for the bait, averaged over ….

For chain 1 QGAWLGSPEPWEPLLD, the screen value is 0.00083 average fractional NGS count over selection days 2 and 3 (reads of this peptide / all reads for the bait, averaged over ….

In the case of chain 1 QGAWLGLPEPWEPLLD, the screen value is 0.000927 average fractional NGS count over selection days 2 and 3 (reads of this peptide / all reads for the bait, averaged over …. On the same count and under the same terms, under chain 1 QGAWFGAPEPWEPLLD stands 0.000119 average fractional NGS count over selection days 2 and 3 (reads of this peptide / all reads for the bait, averaged over …; under chain 1 QGAWLGAPEPWEPHLD, 0.000429 average fractional NGS count over selection days 2 and 3 (reads of this peptide / all reads for the bait, averaged over …. Still for that read-out and setting: for chain 1 QGAWLGAPEPWEPPLD the value was 0.000127 average fractional NGS count over selection days 2 and 3 (reads of this peptide / all reads for the bait, averaged over …; for chain 1 QGAWLGAPEPWEPKLD, 0.00411 average fractional NGS count over selection days 2 and 3 (reads of this peptide / all reads for the bait, averaged over …; for chain 1 QGAWLGAPEPWEPWLD, 0.000273 average fractional NGS count over selection days 2 and 3 (reads of this peptide / all reads for the bait, averaged over …. chain 1 QGAWLGAPEPWEPFLD: the screen value was 0.00284 average fractional NGS count over selection days 2 and 3 (reads of this peptide / all reads for the bait, averaged over …. Same read-out and setting: for chain 1 QGAWLGAPEPWEPRLD the value was 0.000211 average fractional NGS count over selection days 2 and 3 (reads of this peptide / all reads for the bait, averaged over …. chain 1 QGWWLGAPEPWEPLLD: the screen value was 0.000101 average fractional NGS count over selection days 2 and 3 (reads of this peptide / all reads for the bait, averaged over …. Take chain 1 QGQWLGAPEPWEPLLD: the screen value was 0.000713 average fractional NGS count over selection days 2 and 3 (reads of this peptide / all reads for the bait, averaged over …. The same measure, in the same setting: for chain 1 QGIWLGAPEPWEPLLD the value was 0.00198 average fractional NGS count over selection days 2 and 3 (reads of this peptide / all reads for the bait, averaged over ….
